Measurements reported in article PMC2952587, “Identification of the Essential Brucella melitensis Porin Omp2b as a Suppressor of Bax-Induced Cell Death in Yeast in a Genome-Wide Screening” (PLoS ONE, 2010).

Biological target: the molecule itself
Experiment: semi-denaturing gel with Western blot

B1: Brucella melitensis porin Omp2b (natural protein)
chain: ADAIVAPEPEAVEYVRVCDAYGAGYFYIPGTEICLRVHGYVRYDVKGGDDVYSGTDRNGWDKGARFALRVSTGSETELGTLKTFTELRFNYAANNSGVDGKYGNETSSGTVMEFAYIQLGGLRVGIDESEFHTFTGYLGDVINDDVISAGSYRTGKISYTFTGGNGFSAVIALEQGGDNDGGYTGTTNYHIDGYMPDVVGGLKYAGGWGSIAGVVAYDSVIEEWAAKVRGDVNITDQFSVWLQGAYSSAATPDQNYGQWGGDWAVWGGLKYQATQKAAFNLQAAHDDWGKTAVTANVAYELVPGFTVTPEVSYTKFGGEWKNTVAEDNAWGGIVRFQRSF
notes: also called BMEI1305
stoichiometry N: 3
